Measured values published in publication PMC4861493, “Functional Evolution in Orthologous Cell-encoded RNA-dependent RNA Polymerases*” (The Journal of Biological Chemistry, 2016).

Target: the molecule itself
Assay: crystal structure; QDE-1^Tte catalytic fragment apoenzyme, crystals grown at 30 °C in 100 mM Tris-HCl pH 8.0, 75 mM NaCl, 10% PEG 10,000, 5 mM MgCl2, 6 mM spermine; 3.19 Å; two non-crystallographic dimers (A/B, C/D) in the asymmetric unit

B1: QDE-1^Tte catalytic fragment (RNA-dependent RNA polymerase QDE-1 of Thielavia terrestris) (enzyme)
chain: EVYARLQNIWPKFPRWLHAAPLALAWELTRICLHCKVDLEDPTLRYDPSWATSDMAALWRSLTQLDVFRGKSFPERPSAEAFAAALTGNFESRGNTVVLSASLEFNPSKTGPLFLLDMKPLRFDEGCRLTRRFGPDRFLEVLVPSPTALNAPSILKDGGAAQVIRWLTEKPHSLVGRQWQAFYTKDAGYRKPARELRLGPDAKATFKERVHFFAERGHDFRPAPLRTRAQLPPESPSRRRTEIRVSEMLDWLLQLEQNEYQPHLKLFSRIQLGLSKTFPTVTFEPNQIRHRTDDILSPAGKIMNDGIGRMSRSVARKIRDALGLSDIPSAIQGRMGSAKGMWLMDVADAGDDDWIETYPSQRKWKCDDADALHRTLEIRSVSTELKPAALNLQFLPVLEDRAKDKARMRRAIAARLMNDLKKQFDSQKAAVERPLQFRQWVNECTNSRSERVRHGQVPFLGGLPENKGEVLSFLLNSGFDRRQKYIQDLAFDLQKQRCEVLRTKLNIHVGRSAYMFMVVDFWGVLEENEVHVGFSSKFRDDVDDTTYMLLTDCDVLVARSPAHFPSDIQKVRAVFKPQLHALKDVIVFPAKGDIPLADKLSGGDYDGDMAWVCWDPDIVENFTNADMPKEPDLSAYLGKDKTTFGELVRDTGRTGAAARHEAVYDMINKSFQFAMQPNYLGICTNYKERVCYHNNSVSDGVALLLSTLVGKLVDQSKQGILFDAASWDRLRRERLGGRMSVEDPAYKGDVWAGAGEPRHIVDYLKFAVAKPTIDRELEELHKVMQASRRAGPDDDAAAHSWDPDLAVYFENFKALTAESRSLRAVLEALQNALGAVEHEWKVLMSKGSSSSLTYPEKVRQLHAKWCAIEPRAVGRAGSNRLDAKTAALLEQPFLADRGGAGTSYWALLRASTAFKAYYKTNPKFVWQMAGAQLAFIKAQMSSPGGGGGGGSDGMPLLVTPLMYAGLAPDGRFVKQYLARLECDGSQYPDDDLEGDGEDGGGGGGRGDDVD
notes: QDE-1 ortholog of Thielavia terrestris, catalytic fragment; synthetic ORF from Genscript cloned into pFB-LIC-Bse; the monomer used for crystallization has 1,034 residues including the His tag and the tobacco etch virus protease cleavage site; numbers count on: the catalytic fragment; A TEV protease cleavage site lies between the His tag and the fragment and was not cut in the crystallized …
stoichiometry N: 2
